Assay results from the RNAGym collection of RNA variant scans (doi:10.7554/elife.90254).

B1: LINE1-full (parent)
chain: UACGUAGGUGGUUUUCCCCUGAUAGUGCUAAGGGGGCCUGGAAGUUUGGACUGGGCAGAGCUCAACACAGCGUGGCAAAGUGGCUGUGGCUAGACUGCCUCUCUGGAUUCCUCGUCACUCAGCAGGGCAUCUCUGAGAGAAAUGCC

Variants of: B1
Assay: self-cleavage, relative activity (ratio to wild type); higher = more cleavage; in vitro, sequencing; the parent is a self-cleaving ribozyme

Variant | self-cleavage
U115G | 1.5
U45C U109A | 1.5
U20C U52G | 1.81
A78C | 2.41
C16U U132A | 1.41
U9A A42U | 1.09
U9A G74A | 1.09
C17A U132A | 1.17
U102A | 1.21
C71A G93U | 0.03
G21C | 0.69
U1C A43G | 0.79
U52A A117G | 1.43
U47A U119A | 1.34
C95U A138U | 0.2
U20A U96A | 0.05
A94G U134A | 0.21
U14C C99A | 0.86
U132C A138G | 1.6
A22C U115A | 1.46
C113A U132C | 1.44
U26A C116U | 0.99
A6U G72A | 1.2
U85G A107U | 0.27

Variant | self-cleavage
A121G A140G | 1.84
C37A U87G | 0.12
G126A A141G | 1.34
A117U U132C | 1.37
U12C U143C | 1.46
C56U U115C | 0.19
C17G | 0.91
A67C C123A | 0.07
U104C A140G | 1.67
A42U A121C | 2.42
A64U C71U | 0.37
G58C A124U | 0.03
G106A A124U | 1.54
U5A C90G | 0.09
C38U U85C | 0.15
U81A A136U | 2.35
U39G A65C | 0.04
A57C U102C | 0.1
U87C C99U | 0.13
U87G U100C | 0.28
G40U A65G | 0.04
G33U U87C | 0.09
G54U A65G | 0.03
U47C A50G | 1.14

Variant | self-cleavage
A2U U12A | 0.31
G25A A30U | 0.7
U112G A142G | 1.27
A57U U73A | 0.06
A79G U100C | 1.46
U81G U104A | 1.23
A57U A138U | 0.12
U9C C98G | 0.22
G74A U85C | 0.06
U23A U132C | 0.33
A117C A124U | 1.14
A77C A136G | 1.06
A94U U119C | 0.28
U20C A140U | 0.95
U29C U45C | 1.08
U29C U45G | 0.79
U20C A142G | 1.36
A59G U115C | 0.07
A77G C145A | 2.43
G33U A138G | 1.68
A78G A141G | 1.38
U23G U46A | 1.3
A78G G126U | 1.75
G41A C68U | 0.23

Variant | self-cleavage
U20A A79U | 1.59
U39C U52C | 0.37
U5C A78G | 1.18
U12G U91A | 0.97
A50G G53C | 0.13
C63A A142U | 0.05
U52C A69U | 0.1
U9C A136G | 1.75
U9C A117G | 1.53
U1A A69G | 1.2
U87C A138U | 0.24
U29A C110U | 1.07
U73A C113A | 0.23
U26A U104A | 0.98
C51A A141G | 1.75
C71A A78G | 0.19
U15C C61U | 0.05
A30U U104C | 1.31
G88A G135A | 0.08
A31U A50G | 0.16
A31U A94G | 0.36
A2G U119C | 1.32
A129G U134C | 1.43
U14A U62A | 0.05

Variant | self-cleavage
G126U A129U | 0.81
A31G U100C | 1.29
U14C U29C | 1.4
U47A U85A | 0.04
U39C C76U | 0.7
U20A U134C | 1.32
U1C U73C | 1.04
U14A C101A | 1.42
U85A U119C | 0.09
G48A A65G | 0.03
U15C U104A | 1.05
U87C U130A | 0.19
U14A A30G | 1.27
U87C A124U | 0.33
G88A A124G | 0.06
A31G U119C | 1.94
G32A C101U | 0.95
G80U A141U | 1.68
C37U G54U | 0.41
U47A U112A | 0.7
A42G U73A | 1.52
U13C A121G | 1.52
C19U A142G | 1.06
C56U A124G | 0.08

Variant | self-cleavage
A65U A79G | 0.21
C38U | 1.33
U14C A22U | 2.36
U9C A65U | 0.32
U85A U132C | 0.09
A57G U96G | 0
U13A C19A | 1.84
U20C U23C | 1.2
A78G U112C | 1.24
U9G U52G | 1.05
A67G U134C | 0.56
U13C A65G | 0.12
U115C A117G | 1.4
G41A A43G | 0.44
U5C C120U | 1.26
A2G U87A | 0.32
U130A A140U | 1.24
A64C A140G | 0.24
U119C A136G | 1.98
A2U A129U | 0.75
U15C A57G | 1.06
U9A U112A | 0.82
A42G A57U | 0.14
U115C G122A | 1.77

Variant | self-cleavage
G35U G55U | 0.72
A30G A79G | 1.19
C116U A129G | 0.93
U26C U112C | 1.36
C113U C131G | 1.32
U12C A65G | 0.15
U13G A69U | 0.39
A43G U52A | 1.43
U39C C113A | 0.33
U12C U134A | 1.22
A107G U132A | 0.88
G139A A140G | 0.19
A24G U45G | 0
A136G C145U | 1.45
A67G U115G | 1.22
G122A A140U | 1.47
U85C U130A | 0.35
A31G A42G | 0.96
C37A G58A | 0.03
C90A U134A | 0.04
G93A U119A | 0.03
U12C U81A | 1
C110U | 1.51
U12C A67G | 0.77

Variant | self-cleavage
C90G U132C | 0.05
A67G A117G | 0.52
U13C C116A | 1.15
U109C C113U | 1.28
A6C U100C | 0.66
A30U U132C | 1.07
G27A U130C | 1.34
G126A A136U | 1.41
G27A U143C | 1.38
G54C U143A | 1.3
G4A U45C | 0.57
C76U A142C | 0.92
U96A A136G | 0.09
A59C A67G | 0
A67U U119C | 0.19
U20C G114A | 1.57
U15A U112C | 1.51
G36C U39G | 0.76
U13A A92G | 0.12
G49A U119A | 1.15
C146A | 1.45
U20A C68U | 0.35
U12A U73A | 1.47
A30U G58A | 0.18

Variant | self-cleavage
A64U U109G | 0.23
U62C U112G | 0
A59U U102C | 0.94
A138G A142C | 0.16
U52G U115C | 1.71
A6G U85C | 0.2
U1C G105A | 0.12
A69G G125U | 0.3
C76A U81C | 1.46
U12G G35A | 0.89
U45A G72A | 0.95
C113U A141G | 0.94
C128U A140G | 0.89
A31U U109A | 1.69
A67C G135U | 0.05
U20A A59G | 0.15
U46C U47A | 1.37
G83A U130A | 0.99
U52A C110A | 1.66
U52A C110U | 1.23
A31G C123U | 1.02
A22U U108A | 1.08
A57U G83A | 0.03
G54A U109A | 0.35

Variant | self-cleavage
A24G C128A | 0.65
U12C U47A | 0.71
U73A A138G | 1.75
A6G U52C | 0.72
U20A A124G | 0.76
A136G C146U | 1.91
U132C A142C | 1.51
U132C A142U | 1.2
A92G U104C | 0.05
A65G G127C | 0.06
A64C U100C | 0.62
U46C G54A | 1.21
U104C A142G | 1.81
A43G C103U | 1.25
C71U A124U | 1
U1A C37G | 0.74
A22G C98U | 0.64
U23A U96C | 0.19
U39A U109C | 1.1
U85A U143C | 0.11
U9A A117G | 0.96
A31C U39C | 1.19
A64G | 0.25
G75A U81C | 0.67

Variant | self-cleavage
U5C U96A | 0.12
A2G U109C | 1.39
G10A U26C | 0.95
A6U G36A | 0.88
A64G U112C | 0.28
U102C A136U | 1.8
U13C U46G | 1.31
U20C A94G | 0.39
U39C U102C | 0.99
G11C A57G | 0.71
G8U U13C | 2.33
U26C U104C | 0.84
A94U | 0.29
A59G U87A | 0.06
G44A U96C | 0.13
A129G U143C | 1.59
G40U | 1
U81A U96A | 0.07
U20C A30G | 1.39
U39A G53A | 1.33
A64U A141C | 0.46
G21A C145U | 0.32
U45A A140G | 1.32
A69G U73C | 0.59

Variant | self-cleavage
U62C U108C | 0.05
U20A G135U | 0.43
G36U A78G | 1.5
U20C G72U | 0.9
U87C U115A | 0.17
U73C U112G | 2.63
U15A A77G | 0.89
A78G G105A | 1.8
G21A U62C | 0.05
U85C A107G | 0.15
U15C G122U | 1.16
C84G A129G | 0.2
U52C A67U | 0.16
G35U A124G | 0.68
G144C | 1.34
U12G U132A | 0.66
A65G U87A | 0.06
U12A A65G | 0.21
U100C G135A | 1.74
A42G G144U | 1.65
U15A U143A | 1.09
G7C G40A | 1.27
U29C C145U | 1.28
U1C U52C | 1.38

Variant | self-cleavage
A57U A117U | 0.13
C16A U96C | 0.04
A59G C71U | 0.04
A6U U87G | 0.12
G53A C128U | 1.34
U9G A140G | 0
U108A A117G | 1.97
G58A A142G | 0
C71G | 0.27
U108C A140G | 1.74
A59G U134C | 0.15
A2G U96C | 0.22
A67U A141G | 0.13
G35U A69G | 0.6
A79U A129G | 2.13
U13A A69U | 0.01
A65G U104A | 0.05
U23C U109A | 1.49
U13C A64C | 0.45
U91C A138U | 0.6
U1C U12A | 0.95
A31C U134C | 1
G34U C63A | 0.04
C28U U102C | 0.15

Variant | self-cleavage
U9C U62A | 0.14
U100C U130C | 2.16
U62A U87A | 0.04
U26A U73G | 1.18
U100C | 1.79
A24U A107U | 1.64
U9C C28A | 1.16
C98A C101U | 0.09
G7A A107G | 1.22
C123A | 1.19
C56U C71U | 0.07
U29C A77U | 1.63
C3U A77G | 0.71
A24G G139A | 1.3
U73A | 1.46
C51A A138G | 1.44
U47A A65G | 0.07
U15A A107G | 0.81
U87C U96C | 0.27
U39C A67U | 0.16
G27A U73A | 0.87
U5A C61A | 0.03
